Measured values taken from paper PMC6451106.

Molecular target: human 80S ribosome (non-translating, Puromycin-treated monosomes) (human (endogenous in HeLa))
Assay: MST

Row | Molecule | EC50 [nM] | Kd [nM]
1 | SRP72 (natural protein) MASGGSGGVSVPALWSEVNRYGQNGDFTRALKTVNKILQINKDDVTALHCKVVCLIQNGSFKEALNVINTHTKVLANNSLSFEKAYCEYRLNRIENALKTIESANQQTDKLKELYGQVLYRLERYDECLAVYRDLVRNSQDDYDEERKTNLSAVVAAQSNWEKVVPENLGLQEGTHELCYNTACALIGQGQLNQAMKILQKAEDLCRRSLSEDTDGTEEDPQAELAIIHGQMAYILQLQGRTEEALQLYNQIIKLKPTDVGLLAVIANNIITINKDQNVFDSKKKVKLTNAEGVEFKLSKKQLQAIEFNKALLAMYTNQAEQCRKISASLQSQSPEHLLPVLIQAAQLCREKQHTKAIELLQEFSDQHPENAAEIKLTMAQLKISQGNISKACLILRSIEELKHKPGMVSALVTMYSHEEDIDSAIEVFTQAIQWYQNHQPKSPAHLSLIREAANFKLKYGRKKEAISDLQQLWKQNPKDIHTLAQLISAYSLVDPEKAKALSKHLPSSDSMSLKVDVEALENSAGATYIRKKGGKVTGDSQPKEQGQGDLKKKKKKKKGKLPKNYDPKVTPDPERWLPMRERSYYRGRKKGKKKDQIGKGTQGATAGASSELDASKTVSSPPTSPRPGSAATVSASTSNIIPPRHQKPAGAPATKKKQQQKKKKGGKGGW | 520 | 820
2 | SRP68/72 complete heterodimer (complex) chain 1: MAAEKQVPGGGGGGGSGGGGGSGGGGSGGGRGAGGEENKENERPSAGSKANKEFGDSLSLEILQIIKESQQQHGLRHGDFQRYRGYCSRRQRRLRKTLNFKMGNRHKFTGKKVTEELLTDNRYLLLVLMDAERAWSYAMQLKQEANTEPRKRFHLLSRLRKAVKHAEELERLCESNRVDAKTKLEAQAYTAYLSGMLRFEHQEWKAAIEAFNKCKTIYEKLASAFTEEQAVLYNQRVEEISPNIRYCAYNIGDQSAINELMQMRLRSGGTEGLLAEKLEALITQTRAKQAATMSEVEWRGRTVPVKIDKVRIFLLGLADNEAAIVQAESEETKERLFESMLSECRDAIQVVREELKPDQKQRDYILEGEPGKVSNLQYLHSYLTYIKLSTAIKRNENMAKGLQRALLQQQPEDDSKRSPRPQDLIRLYDIILQNLVELLQLPGLEEDKAFQKEIGLKTLVFKAYRCFFIAQSYVLVKKWSEALVLYDRVLKYANEVNSDAGAFKNSLKDLPDVQELITQVRSEKCSLQAAAILDANDAHQTETSSSQVKDNKPLVERFETFCLDPSLVTKQANLVHFPPGFQPIPCKPLFFDLALNHVAFPPLEDKLEQKTKSGLTGYIKGIFGFRS chain 2: MASGGSGGVSVPALWSEVNRYGQNGDFTRALKTVNKILQINKDDVTALHCKVVCLIQNGSFKEALNVINTHTKVLANNSLSFEKAYCEYRLNRIENALKTIESANQQTDKLKELYGQVLYRLERYDECLAVYRDLVRNSQDDYDEERKTNLSAVVAAQSNWEKVVPENLGLQEGTHELCYNTACALIGQGQLNQAMKILQKAEDLCRRSLSEDTDGTEEDPQAELAIIHGQMAYILQLQGRTEEALQLYNQIIKLKPTDVGLLAVIANNIITINKDQNVFDSKKKVKLTNAEGVEFKLSKKQLQAIEFNKALLAMYTNQAEQCRKISASLQSQSPEHLLPVLIQAAQLCREKQHTKAIELLQEFSDQHPENAAEIKLTMAQLKISQGNISKACLILRSIEELKHKPGMVSALVTMYSHEEDIDSAIEVFTQAIQWYQNHQPKSPAHLSLIREAANFKLKYGRKKEAISDLQQLWKQNPKDIHTLAQLISAYSLVDPEKAKALSKHLPSSDSMSLKVDVEALENSAGATYIRKKGGKVTGDSQPKEQGQGDLKKKKKKKKGKLPKNYDPKVTPDPERWLPMRERSYYRGRKKGKKKDQIGKGTQGATAGASSELDASKTVSSPPTSPRPGSAATVSASTSNIIPPRHQKPAGAPATKKKQQQKKKKGGKGGW | 160 | –
3 | Ffh from E. coli (natural protein) MFDNLTDRLSRTLRNISGRGRLTEDNVKDTLREVRMALLEADVALPVVREFINRVKEKAVGHEVNKSLTPGQEFVKIVRNELVAAMGEENQTLNLAAQPPAVVLMAGLQGAGKTTSVGKLGKFLREKHKKKVLVVSADVYRPAAIKQLETLAEQVGVDFFPSDVGQKPVDIVNAALKEAKLKFYDVLLVDTAGRLHVDEAMMDEIKQVHASINPVETLFVVDAMTGQDAANTAKAFNEALPLTGVVLTKVDGDARGGAALSIRHITGKPIKFLGVGEKTEALEPFHPDRIASRILGMGDVLSLIEDIESKVDRAQAEKLASKLKKGDGFDLNDFLEQLRQMKNMGGMASLMGKLPGMGQIPDNVKSQMDDKVLVRMEAIINSMTMKERAKPEIIKGSRKRRIAAGCGMQVQDVNRLLKQFDDMQRMMKKMKKGGMAKMMRSMKGMMPPGFPGR | – | 2300
4 | Chloroplast SRP54 from Arabidopsis thaliana (natural protein) EMFGQLTGGLEAAWSKLKGEEVLTKDNIAEPMRDIRRALLEADVSLPVVRRFVQSVSDQAVGMGVIRGVKPDQQLVKIVHDELVKLMGGEVSELQFAKSGPTVILLAGLQGVGKTTVCAKLACYLKKQGKSCMLIAGDVYRPAAIDQLVILGEQVGVPVYTAGTDVKPADIAKQGLKEAKKNNVDVVIMDTAGRLQIDKGMMDELKDVKKFLNPTEVLLVVDAMTGQEAAALVTTFNVEIGITGAILTKLDGDSRGGAALSVKEVSGKPIKLVGRGERMEDLEPFYPDRMAGRILGMGDVLSFVEKATEVMRQEDAEDLQKKIMSAKFDFNDFLKQTRAVAKMGSMTRVLGMIPGMGKVSPAQIREAEKNLLVMEAMIEVMTPEERERPELLAESPERRKRIAKDSGKTEQQVSALVAQIFQMRVKMKNLMGVMEGGSIPALSGLEDALKAEQKAPPGTARRKRKADSRKKFVESASSKPGPRGFGSGN | – | > 1200

Molecular target: human 80S ribosome (non-translating, Puromycin-treated monosomes) (human (endogenous in HeLa))
Assay: MST
Remark: another data set of the same source

Row | Molecule | Kd [nM] | KD1 (two-site fit, PALMIST) [nM] | KD of the first (high-affinity) binding event [nM] | concentration of saturation [nM] | stoichiometry N
5 | SRP54MΔC (domain or fragment) | 100 | – | – | – | –
6 | SRP54NG (domain or fragment) | 1650 | – | – | – | –
7 | SRP54ΔC (domain or fragment) | 200 | < 100 | 100 | – | –
8 | SRP68/72ΔC (SRP68/72 heterodimer with the C-terminus of SRP72 truncated) (from UniProt Q9UHB9;O76094) (complex) | 420 | – | – | – | –
9 | SRP72-RBD+C (C-terminal region of SRP72 including the RBD) (domain or fragment) | 920 | – | – | – | –
10 | SRPS/SR complex with SRP54 (without signal sequence) (from UniProt P09132;Q9UHB9;O76094;P61011;P08240;Q9Y5M8) | < 1.4 | – | – | – | –
11 | SRPS/SR complex with SRP54ss (signal sequence fused to SRP54) (from UniProt P09132;Q9UHB9;O76094;P61011;P08240;Q9Y5M8) | < 2 | – | – | – | –
12 | SRPS/SR complex with SRP54ΔC (without signal sequence) (from UniProt P09132;Q9UHB9;O76094;P61011;P08240;Q9Y5M8) | < 1.2 | – | – | – | –
13 | SRαΔRBR/SRβ (from UniProt P08240;Q9Y5M8) (complex) | > 7500 | – | – | – | –
14 | SRαβ heterodimer (SRP receptor; full-length SRα with SRβ lacking its N-terminal TMD) (from UniProt P08240;Q9Y5M8) (complex) | 410 | – | – | – | –
15 | complete SRPS (SRP S domain: SRPS RNA, SRP19, SRP68/72 and full-length SRP54) (from UniProt P09132;Q9UHB9;O76094;P61011) (complex) | < 4.7 | – | – | – | –
16 | complete SRPS with SRP54ΔC (SRPS RNA, SRP19, SRP68/72 and SRP54ΔC) (from UniProt P09132;Q9UHB9;O76094;P61011) (complex) | < 4.7 | – | – | – | –
17 | entire human SRP (native 7SL RNA and all six SRP proteins) (from UniProt P49458;P37108;P09132;Q9UHB9;O76094;P61011) (complex) | – | – | – | < 2.2 | –
18 | quaternary SRPS complex with the SRP68/72 heterodimer without the SRP72 C-terminus (RNA/SRP19/SRP68/72ΔC) (from UniProt P09132;Q9UHB9;O76094) | 370 | – | – | – | –
19 | quaternary SRPS complex with the truncated SRP68/72–RBD constructs (RNA/SRP19/SRP68-RBD/SRP72-RBD in (from UniProt P09132 1-144) | 1650 | – | – | – | –
20 | ternary SRPS complex (SRP RNA/SRP19/54) with full-length SRP54 (from UniProt P09132;P61011) | < 4.7 | – | – | – | 1

Molecular target: rabbit reticulocyte ribosome-nascent chain complexes exposing an SRP-targeting signal (rabbit | not stated)
Assay: MST

Row | Molecule | Kd [nM]
21 | entire recombinant SRPS/SR system as measured with RNCs (from UniProt P09132;Q9UHB9;O76094;P61011;P08240;Q9Y5M8) (complex) | < 0.9
